Source: patent publication US20210371506A1 (JIANGSU HENGRUI MEDICINE, published 2021)

B1: HAB-5101 (antibody, human IgG1, kappa, V domains shown)
VH: QVTLKESGPALVKPTQTLTLTCTFSGFSLSTSGMGVSWIRQPPGKALEWLAHIYWDDVSLYNPSLKSRLTISKDTSKNQVVLTMTNMDPVDTATYYCARRRIITVVDAMDYWGQGTTVTVSS
VL: DVVMTQTPLSLPVTPGEPASISCRSSQSIVHSNGNTYLEWYLQKPGQSPKLLIYKVSNRFSGVPDRFSGSGSGTDFTLKISRVEAEDVGVYYCSQGSRVPPTFGGGTKVEIKR
B2: HAB-9001 (antibody, human IgG1, kappa, V domains shown)
VH: QVTLKESGPALVKPTQTLTLTCTFSGFSLSTFGMGVGWIRQPPGKALEWLAHIWWDDNKYYNPALKSRLTISKDTSKNQVVLTMTNMDPVDTATYYCARRGFHLGSRGDYFDHWGQGTTVTVSS
VL: DVVMTQTPLSLPVTPGEPASISCRSSQSIVHSNGNTYLEWYLQKPGQSPQLLIYKVSNRFSGVPDRFSGSGSGTDFTLKISRVEAEDVGVYYCFQGSRVPLTFGQGTKLEIKR
B3: HAB-2401 (antibody, human IgG1, kappa, V domains shown)
VH: EVQLVQSGAEVKKPGASVKVSCKVSGYTLTNTYMHWVRQAPGKGLEWMGRIDPTNGNTKYAPKFKDRVTMTADTSTDTAYMELSSLRSEDTAVYYCARRVYYYDSTYNYWGKGTTVTVSS
VL: DIQMTQSPSSLSASVGDRVTITCKSSQSLLNSGNQKNYLTWYQQKPGKVPKLLIYWASTRESGVPSRFSGSGSGTDFTLTISSLQPEDVATYYCQNDYNYPLTFGGGTKVEIKR

Legend:
[1] = target: T1, Aβ1-42 monomer (human); experiment: SPR, Biacore T200; IgG captured on Protein A chip, Aβ1-42 monomer flowed over
T1 construct: Synthetic peptide: Sigma A9810 dissolved in DMSO for Biacore; GenScript RP10017 in NaOH/PBS for the ThT assay; also called human Aβ1-42
T1 sequence (peptide, as listed by the source): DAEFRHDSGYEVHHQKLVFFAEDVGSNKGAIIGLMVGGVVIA
Experimental: (§1) The affinity of an antibody to Aβ1-42 monomer was detected by capturing antibody on the chip. IgG was affinity-captured onto Protein A biosensing chip, and then the antigen […] monomer was allowed to flow through the surface of the chip. The reaction signals were detected in real time with Biacore T200 instrument to generate a binding and dissociation curve. At the end of each experimental cycle, after the dissociation was completed, the biosensor chip was washed and regenerated with 10 mM Glycine-HCl (pH1.5).

[2] = target: T2, Aβ1-42 fibrils (human); experiment: SPR, Biacore T200; Aβ1-42 fibrils amine-coupled to CM5 chip, antibody flowed over
T2 construct: Synthetic Aβ1-42 polypeptide (GL Biochem) made into fibrils in vitro (DMSO, diluted in water, 37 °C for 10 days); In the phagocytosis assays the fibrils were fluorescence (FITC) labeled; also called Aβ fibrils; Abeta fibrils
T2 sequence (peptide, as listed by the source): as above
Experimental: (§2) The affinity of an antibody to Aβ1-42 fibrils was detected by the method of amino coupling. Aβ1-42 fibrils was coupled to CM5 biosensing chip (200 RU), and then the antibody molecules were allowed to flow through the surface of the chip. The reaction signals were detected in real time with Biacore T200 instrument to generate a binding and dissociation curve. At the end of each experimental cycle, after the dissociation was completed, the biosensor chip was washed and regenerated with 10 mM Glycine-HCl (pH 1.5). The positive antibody, Aducanumab, was prepared according to the sequence information about Aducanumab released by WHO (see WHO Drug Information, Vol. 28, No. 3, 2014), and the preparation method was described in Example 4 of the present disclosure.

[3] = target: T1, Aβ1-42 monomer; experiment: cell-based or functional assay
[4] = target: T1, Aβ1-42 monomer; experiment: SPR, Biacore T200; IgG on Protein A chip, Aβ1-42 monomer as analyte; reference Aducanumab
Experimental: as §1

[5] = target: T2, Aβ1-42 fibrils; experiment: SPR, Biacore T200; Aβ1-42 fibrils on CM5 chip; reference Aducanumab
Experimental: as §2

Kd [1] [nM] | Kd [2] [nM] | IC50 (read off the curve) [3] [nM] | affinity relative to Aducanumab [4] | affinity relative to Aducanumab [5] | Binder
333 | 1.22 | ~800 | – | – | B1
27.9 | 0.213 | – | 2 orders of magnitude | 2 orders of magnitude | B2
229 | 11.7 | – | – | – | B3
